# Laboratory results reported in the DeepSol protein solubility set.
# Test: soluble on expression in E. coli; label from the status in PepcDB or PDB records
row,Sequence,soluble on expression in E. coli
1,MGSDKIHHHHHHMATRATQISTLVEEIANNPNLKEDLKILPSNYTFEVPKTIWKIRSTESKYVALQFPEGLIMYACVIADILEKYTGCDTVIMGDVTYGACCVDDYTAKSMGCDLLVHYGHSCLVPIQNTDGIAMLYVFVNIHINLSHLIDCVKENFQGKRLVVVSTVQFIPSLQTLRTTFNKDDSSIRIDIPQCKPLSPGEVLGCTSPRLDASKYDAIVYLGDGRFHLESIMIHNPEIEAFQYDPYSRKLTREFYDHDLMRKNRIGSIEIARKCTTFGLIQGTLGRQGNLKVVEELEAQLERKGKKFLRVLLSEIFPEKLAMFPEVDCWVQVACPRLSIDWGTQFPKPLLYPFELAVALDNISVPSDHWPMDYYSNDSLGPWTNNNEANRPKREKRKPHIVVRTEAS,not soluble
2,AIAGSVNSRGHKAEAQVVMMGLDSAGKTTLLYKLKGHQLVETLPTVGFNVEPLKAPGHVSLTLWDVGGQAPLRASWKDYLEGTDILVYVLDSTDEARLPESAAELTEVLNDPNMAGVPFLVLANKQEAPDALPLLKIRNRLSLERFQDHCWELRGCSALTGEGLPEALQSLWSLLKSRSCMCLQARAHGAERGDSKRS,soluble
3,MEQRDMKTVFLLDRSAKFVENCNETFDVTIREGPKQKKLQFEKTIWTWCLEGIFEMHRILSDVYPRGTLQLRFALADFMGKMLDTQWTDGFLTREELGELIETVSRPSEANTDITPIGGLTMAIEALAVQSPEQRNYNYDVRYSANKRTAQNSEVIRVTRELRGLPPLPTVQNAGNLIMYTRLNTQEEMEQLQTEIVELVVSRNKIADAPSNKTFCPITSLRLFIVNYYATGDECTVKTHSLQAHPDLPLLKIWVISRKAADMCDAIHSLLVDAFDLGSTTVTKIPMKEDNRGSSNYDVELFHSGKVHAMLKENNLIDTVSKKGDSDKGVTYDTMRLTWTTAPKTKWSLFPYHGAAVPCTTAQAYSRPSACLTQFVRDGRCVMLDSEKTTELGMNMHEKLVSHLLIANRGRIFIQEIDFMQKKADRIAGKLKRPRVLHAPEDPINMNQLRHTYKQLELRFVAKNRMDDNLTEKETEKWTGLKNSDLKKRFQRISKNIPCFAADTFIFNEKVTPKLEPLISLITKTTLSENDVDKCKQCIVTLYQMKNERQYVISPESDIKISSVRNLKDPDEQLRVTFVELAKHIMKYVTFSEKHKEIYKTYMTTLNVDKLLEVDLDDDEAVDKMFVKFSFFGKSDTASKTDEDEDSSDDEDEEILKSPALKKLFGYVDARDERKYEELYGQGFKKKKPEVEEKPIVMAKEIKVDIFSNMCDMLEVKESKIRREFVGRETHGNIAPLYPQLAEKLERPASPAATERGTERVRNTAERGGSGTPPPGGRRNFQ,not soluble
4,SLPTLVTTQASDIDGSTLLSSQKGSGLGDCDSDARWTWDGRRFVPTSTSTSGLCRLVAAGGAWELPTLVTEVKSSP,soluble
5,HQWQADEEAVRSATCSFSVKYLGCVEVFESRGMQVCEEALKVLRQSRRRPVRGLLHVSGDGLRVVDDETKGLIVDQTIEKVSFCAPDRNHERGFSYICRDGTTRRWMCHGFLACKDSGERLSHAVGCAFAVCLER,soluble
6,MSLGIATFAVVDLETTGNQLDYDEIIQIGITFVRQNQVIDTYHSMIRTDLEIPPFIQALTSIEEEMLVQAPYFNEVADDIYQLIKDCVFVAHNISFDLNFIKKAFEKCNIQFKPKRVMDTLELFKIAFPTDKSYQLSALAESHHIPLNNAHRADEDATTTAKLMIKAFEKFEQLHEGHHHHHH,soluble
7,GMVSRSPFESFQWKSDIFNCESTDIDNFYLLLEQEMTRLGMVEKNLGEVGKYKVSLYQSPAAKSGLPSLLISAGFHGEESAGPWGLLHFLSEASADLFERVNLSLLPLVNPTGFSRGHRFNKYGENPNRGFVFENGKPKANEHTSVEGKLLLDHAQLLIAACRDGILTCHEDVLSREAYVYSFEPSQVPGRFSLDLRDTLGGYFPIAVDGEIDACPVKDGLIFNHFDTSFEACLVRSGARVGACTETPALQNFDQRVLANSAAMTHFLALCAPLCD,soluble
8,MDLMSFKEKEISKKDCLELFEDTENFFDVIKLADSIRKDIVGDTVTYVVNANINFTNVCSGTCKFCAFKAEHGDPNAFFLNPDEVAKKALEARKIGATEVCIQGGLLKEIDTYFQAEILKKVKKITEPYEEIVVHAFSPMEVKSAAENAGLSVNEALKILKENGLNSMPGTAAEILNDEIRSEICPTKLKTSEWIDVVTNAHKTGIKTTCTMMYGHIEENKHLAEHLSILRKIQKETGGFTEFVPLTFLHENAPLHHMERVKSGASGMLDLKTYAISRIFFKDYIKNIQTSWVKLGTKLSQVSLNCGANDIGGTLMEESISKAAGGSYGTFMSEEKLKDMILAVGRIPKQRNTAYEIIE,not soluble
9,MAESYEEWKSFALKLDEETGAQEWKFDNSSPYFDAELISYRYTLLKRYRQQHRTLDLIYLLKEGLTYDIANIGHPMLFAATHVGTKKLIEDYIEEVSQSLAYIASSECITFQRKEKIEFFENCEKAYGQPALMFSGGATLGLFHTGVCKALIEQDLMPKVLSGSSAGAIMTGMLGISASEDIQNLLNGEQFFSDAFHFRKLRELIKGNGGIADVHYLKKFLIENLGDLTFEEAFKKSGLNINVAVAPYDATENPRIMNAIMTPNVLVWSAVLASCAVPVLFPPVRLTSKRYDGEHTPYMANTKWVDGSVRSDFPQERMARLYNLNYTIASQVNPHVVPFMQDDARRFRKDVLSWPERILRRQGKVLSMGLMDFTRQRLGAISPVRRLLDHGYGVVGQRYYGDVNIIAKYSLKHYAYTLQNPRPHLFKRLQREGERATWPKISSIETHARIGKTIQHCLEVLRFEEKKQQPESYYAEALEHHHHHH,soluble
10,MCRLAILALFSVAMVSVYGQDTPPPFLRNATPDQLKSFQQMIQSNGHLTETAMGAKIQEWVDQQGGKVAADWKDFQEFIKGQQGKSEAAHQTAISSFSPEAKKADAELTAISNDASLSIKAKGDKIQAYLTTLPANVKAELEKAQGQ,not soluble
11,MAGHQISFAKEVQPIIETKCLSCHSCFDAPCQLKLESAESLLRGASQEPVYSSARTTEMKPTRLGIDELTVAGWRKRGFYSVLQSDREHAQSLLKNMITLGKQYPFPPNSKLPDSIKTGFARKNQCVSEEEFPGYAHDHPFEGMPFGTSGLTDREYSLLAGWLNQGAAVTDEPVTLTRDEEQTIRTWETLFNRDDKRGRLVARWLYEHLFLAYLYFPEAGDEPRFFELLRSSTPSGEAIIPVATVSPNSDPGGPFFYRLRPISGTIVHKRRISYPLDQMKLRRISELFFSEDWPVGDLPGYDYTERSNPFVTFAAIPARARYQFMLDEAEYFVRTFIHGPVCRGQIATDVIRDHFWTLFQSPESDLFITADTYRRQAIPLLGIPGQDDDLLDAGENWLRYLKRHNDYLALRQQHYVAQQPQGASLAHIWNGDGHNENALLTIFRHHNSASVVRGLAGAVPQTIWLMDYPLLEQTYYQLVVNFNVFGNVAHQVLTRLYFDLIRNGSEQNFVRLLPAGQRKTILNDWYQDLGKLKFGIVYEDIDDRSPSAERFVTENPKLELASHMLERFQSINTLSHDPLNRCEQGNCSRIDQPHWIQQADRALSGIAAQPAASLPGISLLPEVTFVRVQHGQNERTVYTLLRDRAHSNVAFMLGEELRYQPEKDRVTVYPGITGSYPNFMFDVPAAQVGEFVAKLSKAGKIKDFEQIVETWGIRRTHPQFWEILHDITAWQKQQQPLQAGIFDINRYENFLEHHHHHH,not soluble
12,GAMGNNLVETTCKNTPNYQLCLKTLLSDKRSATGDITTLALIMVDAIKAKANQAAVTISKLRHSNPPAAWKGPLKNCAFSYKVILTASLPEAIEALTKGDPKFAEDGMVGSSGDAQECEEYFKGSKSPFSALNIAVHELSDVGRAIVRNLL,soluble
13,MCSKQSANQQISYRQTAEATLDKGMDNQPEAPYWFPKQLLKWQLSKDKAAKYNTASVPLAKRIDKWQLPTVNKTQDPKMKVVALSIMNSSTSGNAPRGINTFDANVFSNWQYIDQLVYWGGSAGEGLIVPPTADVIDSAHKNGVPVLGTVFFPQVVSGGKLKWLNDFLKQDADGHFPMADKLVAVAKAYGFDGWFINQETDPEVKSFDSASTGKTATSSTSNGLSKKHAQLMQQLIKEYKQKAGSKLDLMWYDSMTKDGKMDWQNALTKENQSYLVDANMKPVADSMFLNFWWTKKRLASQELLKKSHERAEKLGISPYNLFAGIDVQADGTATPVRWNLFANKQHVPYTSLGLYAPDWTHASSDTVDEFQAKEGALWVNDQNDPSRSIPSTTSTHWPGVSTYAVEQSAITKQPFVTNFSLGNGYNYFIKLEHHHHHH,not soluble
14,MGSDKIHHHHHHMTLAEKILSQKAGRKVEPGEFLLLEPDIALANDITAPLAIKKFKEYGGKKVKYPDRVVLVPDHFTPNKDIKSAMQVKMMREFAREQGIEKFFEIGRMGIEHVLLPEEGIVKSGDLVVGADSHTCTYGALGAFATGVGSTDIAGFYLIGKVWFRVPESIKVTLRGKFKDLVTAKDLVLKLISILGVDGANYKAIEFSGPGVKEISMDGRFTISNMAIEAGGKTGLFPVDEITIAYERERGIEVEEMYPDEDAKYVREVEMDLSELEPQVAYPFLPSNAKDVSEAEKERIKIDQAVIGSCTNGRIEDLRLAAQILKGRTVSPDVRCIIIPGSQKVYKQALKEGLIDIFIDAGCAVSTPTCGPCLGGHMGVLAEGEVAISTTNRNFVGRMGHPNSKVFLASPAVAAASAIKGYIADPRKL,not soluble
15,MTSAWNEEWRRRRLPALAGQEWDLIVVGGGISGAGILREAARRGWRCLLLEQRDFAWGTSSRSSKMVHGGLRYIAKGQWRLTRDSVRERQRLLGEAPGLVEPLSFVMAHYRGGFPGPRLFGGLLSVYDALAGRRNHRFYDAAALRYLAPGLKEQRLLGGTRFFDAVTDDARLVLRVLAEARHDGGEAFNGMRVRELLREGGQVVGLRAEDRESGELFDFRCRALALATGAWADELRQPGGSEHIRPLRGSHLLLPAWRLPVAHAFSFMHATDRRPVFVFPWEGATVVGTTDLDHRDGLGEDARISRAELDYLLAACAQQFPAAAIEARDVLSTWAGVRPVVSSGDDSGKPSDEKREHVLWREPGCVTLAGGKLTTFRPLAVEVLQACAPLLGRTVTDDGAAVFGACEGPLIDGLGSGQRRRLAGRYGRDLVRLKRLVDTLGTDCVGASETLWAELAFAAEAEMVLHLDDLLLRRTRLGLLLPGGGAAYLPRIRALCQARLGWDDPRWEREQQAYLDLWRRHYSLPVLEHHHHHH,not soluble
16,MGSDKIHHHHHHMHQGAHLDLDDGYQGDISNIGFIIGAKGVAVIDTGGSRQVGEALLSAIREITDLPVLYVINTHIHPDHIFGNAAFKQEHPVFIGHAKLPNAMALRGEAYLRQGQKLLGIQFSESEIIPPTQLVASFQELDIGGRKLLLTAYPNAHTNTDLTVLDETTGTLWTGDLLFIERAPSIDGDIKGWLSAIEDLQKLTGIQLAVPGHGPATQDLQGALSNQARYLNLLLHDVRKAIKQGHSMQQAMESAAASESGHWQLFHEVNRRNVNLIYPVLEWE,not soluble
17,MGSDKIHHHHHHMTNLGTAKNFWDATLYQDKHSFVWQYGEDLLQLLNPQPGEFILDLGCGTGQLTEKIAQSGAEVLGTDNAATMIEKARQNYPHLHFDVADARNFRVDKPLDAVFSNAMLHWVKEPEAAIASIHQALKSGGRFVAEFGGKGNIKYILEALYNALETLGIHNPQALNPWYFPSIGEYVNILEKQGFDVTYAALFNRPTTLAEGEFGMANWIQMFASAFLVGLTPDQQVQLIRKVEATLQDKLYHQESWTADYRRIRIVSIKAQ,not soluble
